Assay results from the DeepSol protein solubility set.

Experiment: soluble on expression in E. coli; label from the status in PepcDB or PDB records

Sequence	soluble on expression in E. coli
MGSDKIHHHHHHMSEQQCTELKVLDTVPFGQVSGDAQFYALRLEKPRWKSWKPGQFVMIRPQGWALDMLWARPFSICRVSSRDLVLFFQAVGRGTRRLADLKAGDTVVVWGPLGNSFAVEPETPTLMLAGGIGIAPFIGYAHTHPKPWNLWMEFGHRMPLGCYPFESINEKIMADNHQEECPDDLLRFIERLEKRIAEYAEQDGLVLACGPTPFLRTVQRFALQYGARCQLSLETRMACGVGGCLGCVTSTTEKHHLHHTQAGKAQVCNNGPVFWADQVDLDKA	not soluble
LDQILRATVEEVRAFLGTDRVKVYRFDPEGHGTVVAEARGGERLPSLLGLTFPAGDIPEEARRLFRLAQVRVIVDVEAQSRSISQPESWGLSARVPLGEPLQRPVDPCHVHYLKSMGVASSLVVPLMHHQELWGLLVSHHAEPRPYSQEELQVVQLLADQVSIAIAQAELSL	soluble
SLQKQEKIIEMFNQIAPTYDKANRILSFGADVAWRKKACQRVMSLYLKKDLKIADIACGTGDMIEIWQESALKMEKNILNIKGIDPSSGMLNVAKEKFPNVEFIKAGAQNLPLESQSLDILSISYGIRNVVERQKALSEFARVLQKDGILVVLEFTKREKGGFIAACRDFYLKNILPSIGGIISKNKSAYEYLPNSIEGFLSKKEFILELKNAGFEMLDYKSFSFGVSSMFIAKKL	soluble
MGSDKIHHHHHHMKTFHNEEIYIKTDNFSDSIFKENTMFFDIETTGFSPVKAIVYMIGCARRIKNRIVIDQYFAESVDDEAAVIEAFAGSLSGCSTIISFNGVGFDIPFLKNKYKKYKQEDPFCNVQILDIFKELSPIKPLLCLENYKQKSIEAFLGIDREDKYSGGELINVYYEYLAQKDDEKLSLLLTHNYEDVLGMTKLLSILSYKECIHGIADITGVSVNPYTAYDGSLMNELIISFENKFSVPKSVSFHDNDIYLTIGTTKSYVRAEIFEGEMRHFYSDYKNYYYLPKEDMAIHKSVAAYVDHEYREKCKAYNCYVRKTGTFIRQYSDFMKPEFRFDIKDKYSYFLLTEDFINSKQMVLSYVKHITDHLFNL	not soluble
MAHHHHHHMYLGSIKNFEDDFLCKGEYKQVYLSLEQNENNEAIEIDICCDNNIYDILQFCREKYGIYGEYIIDSCGNVIHSIKDIIDGDTLYLKEKKEDMNFFSKIKNNFIVNDYIVEKRIGSGGFGIVFQGVHIQTKQKVALKFIPKSNFLDVTDVHRVFIEIQTLRGLIHNNIIKMYDVNHFQNYVCLIMEYAINGDLKNYIKNKFNGFLSEKEAHDLFLQIVKGVYYCHSKHIVHRDLKLENILLDEKMTCKIADFGLSDFVNVDQNIKTEAGTKAYIAPEIIFNQTINYSVFKLDIWSLGILLFIMTQGFAPFKYMEKELKNFESNTLNYANDISDDLKDLISLMLNVDPNKRPIIVEILNHRWFENYKES	soluble
MGHHHHHHSHMIKYYNRKTKQYEIEKVAGENYLNWTYSSPIGMSFLEALIKKKAFSSIYGSFCDSKISKGKVKKFIDSFDIDILESEKKPEAFKSFNDFFTRKLTKEARPFSTNKEILISPGDGRLLVYENIDLDNLVEIKGMGYSLKELIKDEKISSKYKNGICMILRLCPTDYHRFHFVDSGVCSATSKIKGSYYSVNPIALNKVKRLFCENKREWSILKSDNFKDILYIEVGATCVGSIIQTYKENTKVNKGDEKGYFKFGGSTVVLFFEKDSVKIDEDILEQTRLGYETKVFMGESIGKK	soluble
MSLTRPPALSDVPDAAALPAVTAVEAMHCRIPFPSPLQLGKVHMTHRDYVLVRLLLADGGTGHAIGFERGMPLLDLVTRVAPFYVGRSPAMRAAARRAAEAATPPARAVLMRGISLLDIAMWDALARNKGLPLWALLGGARRRVPVMPVVGYGASAPAVAEQCRDLAGRGFRTVKVMIDGSDLAADAALLDAVRKALPDEVAFGIDAHWSWTTIADAMPTCRRAEELGAIFIEDPFLPQQWRTIAELQTQLRVPLAVGEDVIDRYGFRDLAEAARILRVDASVSGGVTGAIEALHLATIMDREVIPHVFPALHGQLAAAFPAARCVEMILPEVGADPVDRLFAEEARIEGGDLLVSETPGAAIAFDWDKARDFALRSERVGEGHHHHHH	soluble
MGSDKIHHHHHHVRALVVSVDNTARREGDTGRRVGMQPPEPPFPHNEKESTAVNFKEMQATLMHELRLYHYPVAVKFFFDQAEVDKFKAETEYYTPLKAMTFCQWQIAARMKGQTVYSEREGLGCSNAVFSFGWKDLDEAEVKSHAKYCKDLDQAKRFVETKSRLPEGLIGIAVAPLADATFMPDTVHFYCDNMQAYHLAVDYMAATDTHPLRPQITMNSSACGGNVYTMVEKQFNMLPACSGSYNAGKTERGEINVIIPGEQMQMVYERLLERMEKLGSSSITKPGDGFPGADVCKNCPLIVFKKAKD	not soluble
MSLNLEKINELTAQDMAGVNAAILEQLNSDVQLINQLGYYIVSGGGKRIRPMIAVLAARAVGYEGNAHVTIAALIEFIHTATLLHDDVVDESDMRRGKATANAAFGNAASVLVGDFIYTRAFQMMTSLGSLKVLEVMSEAVNVIAEGEVLQLMNVNDPDITEENYMRVIYSKTARLFEAAAQCSGILAGCTPEEEKGLQDYGRYLGTAFQLIDDLLDYNADGEQLGKNVGDDLNEGKPTLPLLHAMHHGTPEQAQMIRTAIEQGNGRHLLEPVLEAMNACGSLEWTRQRAEEEADKAIAALQVLPDTPWREALIGLAHIAVQRDREGHHHHHH	soluble
MGSDKIHHHHHHMFKKVAADVLGLSDVGSVITPKDYDKVDADDYVMHEDGEKIYFLIKSKSDEYCFTNKGLLHLDGTSATSKKRTLRRFSYSKYQIKNVALETAGTIDLDVEIKFQMGDEHYSIDVHKKHIEELKDLYKALLKIEEISYDNDITLQYAHKSLDMASNAFSRISNAQVNLAEQFKEMNEIAFNWLVDTKKQYNVKDYGFVFEKFINN	not soluble
MFIGGAIISFLFLFGYMWKEAHSNRIRHVTLSFPHFPDNGPPLTIFFISDIHRRSVSCRMLETVKGKADLVVIGGDLAEKGVPAARVRENVRRLQTVAPVYFVWGNNDDEVDYDLQSLLEEERVYVLKNKAEVWEHGGVPIALIGVGDVSRKEADIARALEHVPPESFRILACHNPAIIARLEDEQHISLVLSGHTHGGQIRLFSFGLYEKGGLKWHGNTALFTSNGYGTTGVPLRLGAPAETHLIKIVPGKLATEKLEHHHHHH	soluble
MGSDKIHHHHHHMTRRGMEFYEKAQELVKGFDIFQNQYANPEEEKDEFSIASQHYDFLPPTITAFSERYPDYKNFRIFESTTVQILDEVAQGHSEIGIIYLNNQNKKGIMQRVEKLGLEIIELISFHTHIYLREGHPLAQKEELVMEDLADLPTVRFTQEKDEYLYYSENFVDTSASSQMFNVTDRATLNGILERTDAYATGSGFLDSDSVNGITVIRLKDNLDNRMVYVKREEVELSQAGTLFVEVMQEYFNQKRKS	not soluble
NAKVKRIRLGNLKKTVKLYDLIDEFHSTTLENLKNGLRTGRGYCIEINKQVVSMAKSTSENRTHAMIIGVGTHPKYRAKGLATKCLIKLCSELLRENKIPCLFYDNEEAGKIYKKLGFENIGKWGIYSK	not soluble
MKGKITLFFTALCFGLTGCIAPPKGLEKERFSINSYREISPQDLTCHCKTVRLGGKIVNTTVLANQTKIEVLSLPVSSISAKPFVELQSDGRFIVYFNGFVEPENLKERYITVGGQLAGTEKGKIEQADYTYPVVQADKYRIWTLSTTYDYPTDDWDEDDDWGFFRWRHRLWYVQPEIHYYLN	not soluble
MHYSYLEPGLHAELAAITPDEAVAHLRNHLGNLLLDPAVTAAYINRLGVLTPEETTPSTRAWLTYLLVRYCDLLPLDLAAQRILAQVTGNAAPHLRDLERCAIPDPIERKLERLGAGEDSERNRAMLLALLHEYPYSPAIMERLMTVELALDIPVGGEWLPSVRPPAGLLRPLHERLFIHAMMQGDTERALQHAAACVPDNPSPHLLNHLAELHARLGDTQQALNLYGASLEADPLQHPVRLRMEALAKPPRAHADALHHRIAICLYSFNKAELLERTLSSLAASQTGEAHILVLLNGCTDDSATRVAAVNERLFNGRLEVIDMPINIGAPAARNWLLAKQTVREADFVAFLDDDVDVPAAWLPRLVGNLEEHPGAGVAGTRVRNPGDVPRLQYLYRNISVARPGLIRLSLDTPTLHHDTGFYDFTRSTTSVMGCCHVFTRRALDEVPAFDLRFSPSQMDDIAHDIDLALAGFDVLYTGDVVCVHHQMSGLGRANATDWKRFGNVAGNDVKFYYRFADRLDALGRLNNLGFMPDMPPALEHHHHHH	soluble
MGSDKIHHHHHHMSKIEELPPSDTDDHSYSSKPGDVFLAFVDAPVKETDDILVEDSFIGGEPKWLHPDSEPPAELLKCGACKSADNMKLLLQAFSPLDDEQMSAIQQRLGINNMSYINPQDDRVLYVFLCTECQRKGNSVRCIRGVKKNKNVDSLSEKMASTSLEKDFQINPFDLSNNSDSKCNAFSSNPFGGANANPFGADSINSNISQSKDEGKKKESATVSAKTARKLHDLQKDKEYDGNKCFKSCLLYVEEETFKNKKPAHLQLPKNLKIDKEALDLTGDEDLEKDPIKLDPRTEKLSKFLDDDTFQKFQEVVGYNPLQVLRYDLGGKPLLYAETKVDILSTVPRPGYNPSSQRIFEMQLMPKMIFDLEEVVSVDNGMEWGTILVFTDVENYMPEFDEHGVGYVEECVKVQWESRT	not soluble
MGTKTKKTLFNVDEQMKAIAAQFETLQILNEKGEVVNEAAMPELSDDQLKELMRRMVYTRVLDQRSISLNRQGRLGFYAPTAGQEASQLASHFALEAEDFILPGYRDVPQLVWHGLPLYQAFLFSRGHFMGNQMPENVNALAPQIIIGAQIIQTAGVALGMKLRGKKSVAITYTGDGGASQGDFYEGMNFAGAFKAPAIFVVQNNRYAISTPVEKQSAAKTVAQKAVAAGIYGIQVDGMDPLAVYAATAFARERAVNGEGPTLIETLTFRYGPHTMAGDDPTRYRTKDIENEWEQKDPIVRFRAFLENKGLWSQEVEEKVIEEAKEDIKQAIAKADQAPKQKVTDLMEIMYEKMPYNLAEQYEIYKEKESK	not soluble
GPGSMPSITQETLRRRAEFVRTGGRGSVRRTVKVAHRNTGDDKKVQQVLKRLNVSPFNDVDDAVLYRHDGTAYYFEKPKVQASMQSQCFVVSGAYDVKEASEVPS	not soluble
MGGSHHHHHHGMASMTGGQQMGRTLYDDDDKDRWGSMNYVIIGGDAAGMSAAMQIVRNDENANVVTLEKGEIYSYAQCGLPYVISGAIASTEKLIARNVKTFRDKYGIDAKVRHEVTKVDTEKKIVYAEHTKTKDVFEFSYDRLLIATGVRPVMPEWEGRDLQGVHLLKTIPDAERILKTLETNKVEDVTIIGGGAIGLEMAETFVELGKKVRMIERNDHIGTIYDGDMAEYIYKEADKHHIEILTNENVKAFKGNERVEAVETDKGTYKADLVLVSVGVKPNTDFLEGTNIRTNHKGAIEVNAYMQTNVQDVYAAGDCATHYHVIKEIHDHIPIGTTANKQGRLAGLNMLDKRRAFKGTLGTGIIKFMNLTLARTGLNEKEAKGLHIPYKTVKVDSTNMAGYYPNAKPLYLKLLYRSDTKQLLGGQVIGEEGVDKRIDVIAMALFNKMSIHDLEDVDLSYAPPYNSVWDPIQQAARRAE	soluble
MKQTNPFVYSNDNKRYHTWNYCLREEFGQKTYKVALDGGFDCPNRDGTVAHGGCTFCSAAGSGDFAGNRALDLKVQFQQVRDKMQTKWKDGKCIAYFQAFTNTHAPVAELREKFETVLNEPGVVGLSIATRPDCLPDDVVEYLAELNERTYLWLELGLQSAHDETGRLINRAHDYDCYLEGVRKLQKHNIRICTHIINGLPKETPEMMMETAQKVVESGVDGIKIHLLHLLKGTPMVEDYKKGDLEFLTRDGYVNLVADQLEILPPEMVIHRITGDGGVDDLIGPVWSLNKFEVLNAIDAELVRRDSWQGKLYQPVEVSSK	not soluble
